According to publication PMC5300761:
pKd: −log10 of the molar value. Where “and” joins values, the source holds several entries; their conditions need not be identical. Equal entries are not always repeated.

Legend:
[1] = target: CRD-BP WT (mouse) (UniProt O88477); experiment: EMSA; conditions: EMSA as in refs 21,22 (buffer not given; competitor preincubation 35 C), FP: binding buffer stock 10 mM Tris-HCl pH 7.4, 2.5 mM EDTA, 5% glycerol, 0.002% …
[2] = target: CRD-BP WT (mouse) (UniProt O88477); experiment: competition; conditions: EMSA as in refs 21,22 (buffer not given; competitor preincubation 35 C); FP: binding buffer stock 10 mM Tris-HCl pH 7.4, 2.5 mM EDTA, 5% glycerol, 0.002% …
[3] = target: CRD-BP KH1 G212D (mouse) (UniProt O88477); experiment: EMSA; conditions: EMSA as in refs 21,22 (buffer not given; competitor preincubation 35 C); FP: binding buffer stock 10 mM Tris-HCl pH 7.4, 2.5 mM EDTA, 5% glycerol, 0.002% …
CRD-BP KH1 G212D (mouse), sequence (O88477 whole entry G212D): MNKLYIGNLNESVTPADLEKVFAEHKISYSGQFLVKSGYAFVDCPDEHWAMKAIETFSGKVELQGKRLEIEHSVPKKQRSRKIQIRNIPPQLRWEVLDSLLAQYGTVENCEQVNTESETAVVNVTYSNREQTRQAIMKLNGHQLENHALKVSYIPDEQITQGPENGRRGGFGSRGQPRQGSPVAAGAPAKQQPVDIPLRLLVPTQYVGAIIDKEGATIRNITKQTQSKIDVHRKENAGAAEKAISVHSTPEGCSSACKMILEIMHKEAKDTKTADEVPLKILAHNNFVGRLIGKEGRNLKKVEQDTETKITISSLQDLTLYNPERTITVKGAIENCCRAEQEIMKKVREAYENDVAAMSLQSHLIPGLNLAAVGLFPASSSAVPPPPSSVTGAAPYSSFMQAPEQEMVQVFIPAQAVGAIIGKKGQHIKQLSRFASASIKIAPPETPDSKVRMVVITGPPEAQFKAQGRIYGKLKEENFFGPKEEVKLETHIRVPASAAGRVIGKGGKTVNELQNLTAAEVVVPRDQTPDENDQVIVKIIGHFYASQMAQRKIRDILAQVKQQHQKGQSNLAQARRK

[4] = target: CRD-BP D526E D526E (mouse) (UniProt O88477); experiment: EMSA; conditions: EMSA as in refs 21,22 (buffer not given; competitor preincubation 35 C); FP: binding buffer stock 10 mM Tris-HCl pH 7.4, 2.5 mM EDTA, 5% glycerol, 0.002% …
CRD-BP D526E D526E (mouse), sequence (O88477 whole entry D526E): as the sequence (O88477 whole entry G212D) above, with D212G, D526E counted along it

[5] = target: CRD-BP KH3-4 G422D;G504D (mouse) (UniProt O88477); experiment: EMSA; conditions: EMSA as in refs 21,22 (buffer not given; competitor preincubation 35 C); FP: binding buffer stock 10 mM Tris-HCl pH 7.4, 2.5 mM EDTA, 5% glycerol, 0.002% …
CRD-BP KH3-4 G422D;G504D (mouse), sequence (O88477 whole entry G422D/G504D): as the sequence (O88477 whole entry G212D) above, with D212G, G422D, G504D counted along it

[6] = target: CRD-BP KH4 G504D (mouse) (UniProt O88477); experiment: EMSA; conditions: EMSA as in refs 21,22 (buffer not given; competitor preincubation 35 C); FP: binding buffer stock 10 mM Tris-HCl pH 7.4, 2.5 mM EDTA, 5% glycerol, 0.002% …
CRD-BP KH4 G504D (mouse), sequence (O88477 whole entry G504D): as the sequence (O88477 whole entry G212D) above, with D212G, G504D counted along it

[7] = target: CRD-BP KH3 G422D (mouse) (UniProt O88477); experiment: EMSA; conditions: EMSA as in refs 21,22 (buffer not given; competitor preincubation 35 C); FP: binding buffer stock 10 mM Tris-HCl pH 7.4, 2.5 mM EDTA, 5% glycerol, 0.002% …
CRD-BP KH3 G422D (mouse), sequence (O88477 whole entry G422D): as the sequence (O88477 whole entry G212D) above, with D212G, G422D counted along it

[8] = target: CRD-BP Y5A Y5A (mouse) (UniProt O88477); experiment: EMSA; conditions: EMSA as in refs 21,22 (buffer not given; competitor preincubation 35 C); FP: binding buffer stock 10 mM Tris-HCl pH 7.4, 2.5 mM EDTA, 5% glycerol, 0.002% …
CRD-BP Y5A Y5A (mouse), sequence (O88477 other isoform, or with tags, fused parts or gaps): as the sequence (O88477 whole entry G212D) above, with Y5A, D212G counted along it

[9] = target: CRD-BP KH2 G293D (mouse) (UniProt O88477); experiment: EMSA; conditions: EMSA as in refs 21,22 (buffer not given; competitor preincubation 35 C); FP: binding buffer stock 10 mM Tris-HCl pH 7.4, 2.5 mM EDTA, 5% glycerol, 0.002% …
CRD-BP KH2 G293D (mouse), sequence (O88477 whole entry G293D): as the sequence (O88477 whole entry G212D) above, with D212G, G293D counted along it

[10] = system: CRD-BP KH3-4 (mouse); experiment: EMSA; conditions: EMSA as in refs 21,22 (buffer not given; competitor preincubation 35 C); FP: binding buffer stock 10 mM Tris-HCl pH 7.4, 2.5 mM EDTA, 5% glycerol, 0.002% …
[11] = system: CRD-BP D526E (mouse); experiment: EMSA; conditions: EMSA as in refs 21,22 (buffer not given; competitor preincubation 35 C); FP: binding buffer stock 10 mM Tris-HCl pH 7.4, 2.5 mM EDTA, 5% glycerol, 0.002% …
[12] = system: CRD-BP Y5A (mouse); experiment: EMSA; conditions: EMSA as in refs 21,22 (buffer not given; competitor preincubation 35 C); FP: binding buffer stock 10 mM Tris-HCl pH 7.4, 2.5 mM EDTA, 5% glycerol, 0.002% …

CRD-BP WT (mouse), sequence (O88477 whole entry): as the sequence (O88477 whole entry G212D) above, with D212G counted along it

GGACACUUGUUAGCGAAUCCUCCCUGCACUGCAUUCGCACAAACUGCUUCCUUUCUUGAUUCGUAGAUUUAAUAACUUACCUGAAGGGGUUUUCUUGAUAAUUUUCCUUUAAUAUGAAAUUUUUUUUCAUGCUUUAUCAAUAGCCCAGGAUAUAUUUUAUUUUUAGAAUUUUGUGAAACAGACUUGUAUAUUCUAUUUUACAACUACAAAUGCCUCCAAAGUA [MITF RNA 1330-1550]
binding [1]: binds more weakly

GGAUUGUACAAAUAAGUGUGCAGUAUCUGUGAACUGAAUUCACCACAGACUUUAGCUUUCUGAGCAAGAGGAUUUUGCGUCAGAGAAAUGUCUGUCCAUUUUUAUUCAGGGGAAACUUGAUU [MITF RNA 1550-1669]
binding [1]: binds

GGAUUGUACAAAUAAGUGUGCAGUAUCUGUGAACUGAAUUCACCACAGACUUUAGCUUUCUGAGCAAGAGGA [MITF RNA 1550-1619]
binding [1]: no binding

GGAUUGUACAAAUAAGUGUGCAGUAUCUGUGAACUGAAUUCACCACAGACUUUAGCUUUCUGAGCAAGAGGAUUUUGCGUCAGAGAAAUGUCUGUCCAUUUUUAUUCAGGGGAAACUUGAUUUGAGAUUUUUAUGCCUGUGACUUCCUUGGAAAUCAAAUGUAAAGUUUAAUUGAAAGAAUGUAAAGCAACCA [MITF RNA 1550-1740]
binding [2]: binds | binding [3]: binds | pKd [4]: 7.04 | pKd [5]: 6.81 | binding [6]: no binding | binding [7]: no binding | pKd [1]: 6.49 and 6.88 | binding [1]: binds | pKd [8]: 7.07 | binding [9]: no binding

GGAUUGUACAAAUAAGUGUGCAGUAUCUGUGAACUGAAUUCACCACAGACUUUAGCUUUCUGAGCAAGAGGAUUUUGCGUCAGAGAAAUGUCUGUCCAUUUUUAUUCAGGGGAAACUUGAUUUGAGAUUUUUAUGCCUGUGACUUCCUUGGAAAUCAAA [MITF RNA 1550-1709]
binding [1]: binds

GGCUGAAUUCACCACAGACUUUAGCUUUCUGAGCAAGAGGAUUUUGCGUCAGAGAAAUGUCUGUCCAUUUUUAUUCAGGGGAAACUUGAUUUGAGAUUUUUAUGCCUGUGACUUCCUUGGAAAUCAAAUGUAAAGUUUAAUUGAAAGAAUGUAAAGCAACCA [MITF RNA 1581-1740]
binding [1]: binds

MITF RNA 1550-1740
pKd [10]: 6.81 | pKd ([1]; 40 nM RNA, compared with deletion RNA): 6.49 | pKd [1]: 6.88 | pKd [11]: 7.04 | pKd [12]: 7.07

GGUUUGCGUCAGAGAAAUGUCUGUCCAUUUUUAUUCAGGGGAAACUUGAUUUGAGAUUUUUAUGCCUGUGACUUCCUUGGAAAUCAAAUGUAAAGUUUAAUUGAAAGAAUGUAAAGCAACCA [MITF RNA 1621-1740]
binding [1]: binds

MITF RNA 1550-1740 (del1621-1669)
pKd ([1]; 40 nM RNA): 6.01
